According to PMC3442271:

Legend:
[1] = biological target: T1, XerC;XerD (Vibrio cholerae;Vibrio cholerae, UniProt Q9KVL4;Q9KPE9 1-311;1-302, |); assay: footprinting
T1 sequence 1: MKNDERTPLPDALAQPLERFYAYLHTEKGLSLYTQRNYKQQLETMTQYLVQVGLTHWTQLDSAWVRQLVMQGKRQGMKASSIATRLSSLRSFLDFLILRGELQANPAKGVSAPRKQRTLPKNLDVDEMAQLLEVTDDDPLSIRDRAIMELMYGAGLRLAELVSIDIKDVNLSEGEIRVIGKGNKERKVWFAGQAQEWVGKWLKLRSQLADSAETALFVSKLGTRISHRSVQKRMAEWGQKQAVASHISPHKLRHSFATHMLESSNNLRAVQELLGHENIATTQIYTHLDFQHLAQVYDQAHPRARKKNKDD
T1 sequence 2: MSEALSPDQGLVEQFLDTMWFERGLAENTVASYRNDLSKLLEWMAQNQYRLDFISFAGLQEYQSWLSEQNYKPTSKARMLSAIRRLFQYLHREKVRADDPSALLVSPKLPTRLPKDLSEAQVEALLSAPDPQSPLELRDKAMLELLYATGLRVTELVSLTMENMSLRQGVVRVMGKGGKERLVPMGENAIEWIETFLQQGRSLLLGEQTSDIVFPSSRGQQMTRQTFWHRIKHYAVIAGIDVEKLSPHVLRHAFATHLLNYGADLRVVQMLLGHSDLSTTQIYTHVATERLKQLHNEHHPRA

[2] = biological target: T2, Endonuclease III (Endo III);XerC;XerD (Escherichia coli;Vibrio cholerae;Vibrio …, UniProt P0AB83;Q9KVL4;Q9KPE9 1-211;1-311;1-302, ||); assay: footprinting
T2 sequence 1: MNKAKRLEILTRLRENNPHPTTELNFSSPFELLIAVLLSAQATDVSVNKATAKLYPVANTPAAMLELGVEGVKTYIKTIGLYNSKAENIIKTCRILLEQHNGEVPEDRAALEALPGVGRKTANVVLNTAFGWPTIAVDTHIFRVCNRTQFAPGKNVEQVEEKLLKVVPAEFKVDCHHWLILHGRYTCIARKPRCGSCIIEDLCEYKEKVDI
T2 sequence 2: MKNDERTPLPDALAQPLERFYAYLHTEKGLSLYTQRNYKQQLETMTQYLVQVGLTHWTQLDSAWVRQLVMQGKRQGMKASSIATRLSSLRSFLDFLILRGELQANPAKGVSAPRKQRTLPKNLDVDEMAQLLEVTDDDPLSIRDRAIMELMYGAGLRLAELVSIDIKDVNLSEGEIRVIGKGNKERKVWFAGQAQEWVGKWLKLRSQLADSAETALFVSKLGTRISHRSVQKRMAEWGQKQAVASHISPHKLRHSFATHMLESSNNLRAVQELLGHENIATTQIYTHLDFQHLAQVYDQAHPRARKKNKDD
T2 sequence 3: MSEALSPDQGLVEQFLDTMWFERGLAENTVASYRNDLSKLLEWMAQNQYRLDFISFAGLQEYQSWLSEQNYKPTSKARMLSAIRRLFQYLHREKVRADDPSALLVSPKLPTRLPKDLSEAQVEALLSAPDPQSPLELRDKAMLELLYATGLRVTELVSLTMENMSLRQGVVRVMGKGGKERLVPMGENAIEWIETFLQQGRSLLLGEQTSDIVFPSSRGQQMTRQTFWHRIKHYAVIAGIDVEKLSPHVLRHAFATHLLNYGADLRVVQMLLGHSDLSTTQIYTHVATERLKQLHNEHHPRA

[3] = biological target: T3, Endonuclease III (Endo III) (Escherichia coli, UniProt P0AB83 1-211); assay: EMSA
T3 sequence: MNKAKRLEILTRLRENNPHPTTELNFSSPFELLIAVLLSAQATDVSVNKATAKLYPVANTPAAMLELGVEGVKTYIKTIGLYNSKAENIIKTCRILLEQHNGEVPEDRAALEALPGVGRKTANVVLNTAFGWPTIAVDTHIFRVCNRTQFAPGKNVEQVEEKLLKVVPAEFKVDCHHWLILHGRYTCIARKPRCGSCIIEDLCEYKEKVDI

[4] = biological target: T3, Endonuclease III (Endo III); assay: competition

Binder	binding result [1]	binding result [2]	binding result [3]	binding result [4]
attP(+)/dif1 pseudo-HJ (structured_DNA) DNA 1: GATCCGTGATCACGCTGAACGCGTTTTAGCAGTGCGCATTATGTGGCGCGGCATTATGTTGAGGGGCCTAACGCCTAAAGCGGCCGCCTA DNA 2: ATCGTAGGCGGCCGCTTTAGGCGTTAGGCCCCGTAACATAATGGCGTATAATACGCATTCGACCGTTGCCGGATCCG DNA 3: CGATCGGATCCGGCAACGGTCGAGTGCGTATTATGTATGTTATGTTAAATGACATCCTGAGATCTCGA DNA 4: TCGATCGAGATCTCAGGATGTCATTTAACATAACATACATAATGCGCACTGCTAAAACGCGTTCAGCGTGATCACG	binds	binds	binds	–
dif1/dif1 HJ (structured_DNA) DNA 1: GATCCGTGATCACGCTGAACGCGTTTTAGCAGTGCGCATTATGTATGTTATGTTAAATGGCCTAACGCCTAAAGCGGCCGCCTA DNA 2: ATCGTAGGCGGCCGCTTTAGGCGTTAGGCCATTTAACATAACATACATAATGCGCACTCGACCGTTGCCGGATCCG DNA 3: CGATCGGATCCGGCAACGGTCGAGTGCGCATTATGTATGTTATGTTAAATGACATCCTGAGATCTCGA DNA 4: TCGATCGAGATCTCAGGATGTCATTTAACATAACATACATAATGCGCACTGCTAAAACGCGTTCAGCGTGATCACG	–	–	–	binds
